Test results from PMC11700639.

Biological target: T1, MPZ-GFP (human), P25189
T1 chain: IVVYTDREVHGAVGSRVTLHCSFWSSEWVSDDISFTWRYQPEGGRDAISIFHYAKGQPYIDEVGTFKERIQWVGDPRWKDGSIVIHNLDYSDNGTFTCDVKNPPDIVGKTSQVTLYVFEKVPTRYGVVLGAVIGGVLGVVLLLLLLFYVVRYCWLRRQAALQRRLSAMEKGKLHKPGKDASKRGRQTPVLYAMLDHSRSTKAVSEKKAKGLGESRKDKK
Test: FRET or BRET
Conditions: remark: other sources report otherwise

FRET efficiency: 5.3%
B1: MPZ-mCherry, P25189 30-248 (natural protein)
chain: IVVYTDREVHGAVGSRVTLHCSFWSSEWVSDDISFTWRYQPEGGRDAISIFHYAKGQPYIDEVGTFKERIQWVGDPRWKDGSIVIHNLDYSDNGTFTCDVKNPPDIVGKTSQVTLYVFEKVPTRYGVVLGAVIGGVLGVVLLLLLLFYVVRYCWLRRQAALQRRLSAMEKGKLHKPGKDASKRGRQTPVLYAMLDHSRSTKAVSEKKAKGLGESRKDKK
